Measured values published in patent publication US20170313754A1 (PROTAGONIST THERAPEUTICS, published 2017).
Numbered stars: 1 amine (or outer) side, 2 acyl side, 3 side chain; on linkers, the order of the positions; unused ones are H or OH. Bridge positions count the residues as written; N and C are the ends. Square brackets hold non-standard residues; d marks the D form. Ends that are not written are not given here. * marks the point of attachment. IDA = iminodiacetic acid, O=C(CN(CC(=O)[*:3])[*:1])[*:2]; Palmitoyl = CCCCCCCCCCCCCCCC(=O)*; β3hF = N[C@H](CC(=O)O)Cc1ccccc1; pGlu = O=C1CC[C@@H](C(=O)O)N1; β3hP = O=C(O)C[C@@H]1CCCN1; Isovaleryl = CC(C)CC(=O)*

B1: Hy-[pGlu]-THFPCRKF-NH2 (peptide)
peptide: [pGlu]THFPCRKF-NH2
SMILES: C[C@@H](O)[C@H](NC(=O)[C@@H]1CCC(=O)N1)C(=O)N[C@@H](Cc1c[nH]cn1)C(=O)N[C@@H](Cc1ccccc1)C(=O)N1CCC[C@H]1C(=O)N[C@@H](CS)C(=O)N[C@@H](CCCNC(=N)N)C(=O)N[C@@H](CCCCN)C(=O)N[C@@H](Cc1ccccc1)C(N)=O
B2: Hy-DTHFPCIIFGPRSRGHVCK-NH2 (peptide)
peptide: H-DTHFPCIIFGPRSRGHVCK-NH2
modifications: not fully specified (bridges); printed as Hy-DTHFPCIIFGPRSRGHVCK-NH2; cysteine pairing not given here
B3: Hy-DTHFPCIIFGPRSKGWNCK-NH2 (peptide)
peptide: H-DTHFPCIIFGPRSKGWNCK-NH2
modifications: not fully specified (bridges); printed as Hy-DTHFPCIIFGPRSKGWNCK-NH2; cysteine pairing not given here
B4: (isobutyric acid-DTHFPCIKF)2[Lys]K(iso-Glu-Palm)-NH2 (peptide)
peptide: DTHFPCIKF
modifications: N-terminal isobutyric acid on each subunit; the two subunits are joined at their C-termini through a [Lys] linker, which is followed by K(iso-Glu-Palm)-NH2
B5: (isovaleric acid-DTHFPCIKF)2[Lys]K(iso-Glu-Palm)-NH2 (peptide)
peptide: DTHFPCIKF
modifications: N-terminal isovaleric acid on each subunit; the two subunits are joined at their C-termini through a [Lys] linker, which is followed by K(iso-Glu-Palm)-NH2
B6: (Isovaleric acid-DTHFPCIKF)2[Lys]-NH2 (peptide)
peptide: DTHFPCIKF
modifications: N-terminal isovaleric acid on each subunit; the two subunits are joined at their C-termini through a [Lys]-NH2 linker
B7: (Isovaleric acid-DTHFPCIKF)2[Lys]-Lys(Palm)-NH2 (peptide)
peptide: DTHFPCIKF
modifications: N-terminal isovaleric acid on each subunit; the two subunits are joined at their C-termini through a [Lys] linker, which is followed by Lys(Palm)-NH2

What follows are binders tested against T1, human ferroportin (SLC40A1) fused in frame with GFP, stably expressed on HEK293 cells (human, UniProt Q9NP59 1-571) (assay: cell-based or functional assay).
T1 sequence (looked up): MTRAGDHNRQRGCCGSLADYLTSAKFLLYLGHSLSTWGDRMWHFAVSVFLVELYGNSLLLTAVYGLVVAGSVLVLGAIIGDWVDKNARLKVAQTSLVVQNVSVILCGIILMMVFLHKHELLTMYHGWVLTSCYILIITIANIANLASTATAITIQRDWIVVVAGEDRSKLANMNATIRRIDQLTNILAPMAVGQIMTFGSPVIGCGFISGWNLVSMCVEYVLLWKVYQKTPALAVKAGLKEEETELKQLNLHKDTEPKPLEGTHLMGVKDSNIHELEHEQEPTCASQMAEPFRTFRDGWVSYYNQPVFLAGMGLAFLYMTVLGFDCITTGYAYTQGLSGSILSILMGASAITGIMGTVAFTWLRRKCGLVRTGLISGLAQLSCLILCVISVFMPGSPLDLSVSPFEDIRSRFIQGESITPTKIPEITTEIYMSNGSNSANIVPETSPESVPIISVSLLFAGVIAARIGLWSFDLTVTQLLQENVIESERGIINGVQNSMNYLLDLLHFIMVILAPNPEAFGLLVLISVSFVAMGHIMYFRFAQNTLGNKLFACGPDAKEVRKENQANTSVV
For H-DTHFPCAIF-NH2 [Hy-DTHFPCAIF-NH2], the “EC50 (nM), ferroportin internalization/degradation assay” value was over 1000 nM.
For H-DTHFPCVIF-NH2 [Hy-DTHFPCVIF-NH2], the “percent at the stated concentration, ferroportin internalization/degradation assay” value was 81 % at 10 uM.
In the case of H-DTHFPCRIF-NH2 [Hy-DTHFPCRIF-NH2, listing 1 of 2 here], the “percent at the stated concentration, ferroportin internalization/degradation assay” value is reported as 31 % at 10 uM.
With H-DTHFPCKIF-NH2 [Hy-DTHFPCKIF-NH2] the “percent at the stated concentration, ferroportin internalization/degradation assay” value was 9 % at 10 uM.
With H-DTHFPCLF-NH2 [Hy-DTHFPCLF-NH2] the “percent at the stated concentration, ferroportin internalization/degradation assay” value was 39 % at 1 uM.
With H-DTHFPCRF-NH2 [Hy-DTHFPCRF-NH2] the “percent at the stated concentration, ferroportin internalization/degradation assay” value was 31 % at 10 uM.
With H-DTHFPRRFGPRSKGWVC-NH2 [Hy-DTHFPRRFGPRSKGWVC-NH2] the “EC50 (nM), ferroportin internalization/degradation assay” value was over 1000 nM.
In the case of [IDA]THF[β3hP]CRR[β3hF]GPRSKGWVC-NH2 (disulfide 6-18 (inferred)) [[IDA]-THF-[bhPro]-CRR-[bhPhe]GPRSKGWVC-NH2], the “EC50 (nM), ferroportin internalization/degradation assay” value is reported as over 1000 nM.
In the case of H-DTHFPCIFGPRSKGWVC-NH2 (disulfide 6-17 (inferred)) [Hy-DTHFPCIFGPRSKGWVC-NH2], the “EC50 (nM), ferroportin internalization/degradation assay” value is reported as over 1000 nM.
For H-DTHFPCRRF-NH2 [Hy-DTHFPCRRF-NH2], the “EC50 (nM), ferroportin internalization/degradation assay” value was over 10000 nM.
In the case of H-DTHFPCRIFGPRSRGWVCK-NH2 (disulfide 6-18 (inferred)) [Hy-DTHFPCRIFGPRSRGWVCK-NH2], the “EC50 (nM), ferroportin internalization/degradation assay” value is reported as over 1000 nM.
For Isovaleryl-DTHFPCRRFGPRSKGWVCK-NH2 (disulfide 6-18 (inferred)) [Isovaleric acid-DTHFPCRRFGPRSKGWVCK-NH2], the “EC50 (nM), ferroportin internalization/degradation assay” value was over 1000 nM.
In the case of H-DTHFPCEIF-NH2 [Hy-DTHFPCEIF-NH2], the “EC50 (nM), ferroportin internalization/degradation assay” value is reported as over 1000 nM.
With H-DTHFPCQIF-NH2 [Hy-DTHFPCQIF-NH2] the “EC50 (nM), ferroportin internalization/degradation assay” value was over 1000 nM.
H-DTHFPCRIF-NH2 [Hy-DTHFPCRIF-NH2, listing 2 of 2 here] was tested, and the “EC50 (nM), ferroportin internalization/degradation assay” value was over 1000 nM.
In the case of B1, the “EC50 (nM), ferroportin internalization/degradation assay” value is reported as over 1000 nM.
In the case of H-DTHFPCLIF-NH2 [Hy-DTHFPCLIF-NH2], the “EC50 (nM), ferroportin internalization/degradation assay” value is reported as over 10000 nM.

Biological target: T1, human ferroportin (SLC40A1) fused in …
Assay: cell-based or functional assay
Remark: another data set of the same source
H-DTHFPCIIY-NH2 [Hy-DTHFPCIIY-NH2] was tested, and the “percent at the stated concentration, ferroportin internalization assay” value (from here on “percent … ferroportin internalization assay”) was 75 % at 10 uM.
With H-DTHFPCIIT-NH2 [Hy-DTHFPCIIT-NH2] the “percent … ferroportin internalization assay” value was 23 % at 1 uM.
With H-DTHFPCILY-NH2 [Hy-DTHFPCILY-NH2] the “percent … ferroportin internalization assay” value was 85 % at 1 uM.
For H-DTHFPCIEY-NH2 [Hy-DTHFPCIEY-NH2], the “percent … ferroportin internalization assay” value was 8 % at 1 uM.
In the case of DTHFPCIIFXPRSKGWVC (N-terminal isovaleric acid; Sarc at 10; N-MeTrp at 16; C-terminal amide) [Isovaleric acid-DTHFPCIIF-[Sarc]-PRSKG[N-MeTrp]-VC-NH2], the “Ferroportin internalization assay EC50” value is reported as 10 nM.
With DTHFPCIIFXPHSKGWVC (N-terminal isovaleric acid; Sarc at 10; N-MeTrp at 16; C-terminal amide) [Isovaleric acid-DTHFPCIIF-[Sarc]-PHSKG[N-MeTrp]-VC-NH2] the “Ferroportin internalization assay EC50” value was 9 nM.
B2 was tested, and the “Ferroportin internalization assay EC50” value was over 1000 nM.
For B3, the “Ferroportin internalization assay EC50” value was over 1000 nM.
In the case of H-DTHFPCINFGPRSKGWVCK-NH2 (disulfide 6-18 (inferred)) [Hy-DTHFPCINFGPRSKGWVCK-NH2], the “Ferroportin internalization assay EC50” value is reported as over 1000 nM.
In the case of H-DTHFPCIDFGPRSKGWVCK-NH2 (disulfide 6-18 (inferred)) [Hy-DTHFPCIDFGPRSKGWVCK-NH2], the “Ferroportin internalization assay EC50” value is reported as over 1000 nM.
For Isovaleryl-DTHFECIIFGPRSKGWVCK-NH2 (not fully specified (bridges); cysteine pairing not given here) [Isovaleric acid-DTHFECIIFGPRSKGWVCK-NH2], the “Ferroportin internalization assay EC50” value was over 1000 nM.
With Isovaleryl-DTHFGCIKFEPRSKEWVCK-NH2 (not fully specified (bridges); cysteine pairing not given here) [Isovaleric acid-DTHFGCIKFEPRSKEWVCK-NH2] the “Ferroportin internalization assay EC50” value was over 1000 nM.
In the case of Isovaleryl-DTEFPCIKFEPRSKEWVCK-NH2 (disulfide 6-18 (inferred)) [Isovaleric acid-DTEFPCIKFEPRSKEWVCK-NH2], the “Ferroportin internalization assay EC50” value is reported as over 1000 nM.

Biological target: T1, human ferroportin (SLC40A1) fused in …
Assay: cell-based or functional assay
Remark: another data set of the same source
For [pGlu]THFPCRKF-NH2 (also: homodimer, linkage of subunits not given here) [([pGlu]-THFPCRKF-NH2)2], the “percent at the stated concentration (printed in the Potency EC50 column), ferroportin internalization/degradation assay” value was 31 % at 10 uM.

Biological target: T1, human ferroportin (SLC40A1) fused in …
Assay: cell-based or functional assay
Remark: another data set of the same source
For DTHFPICIFK (N-terminal isovaleric acid; Palm on the side chain of Lys 10; C-terminal amide) [(isovaleric acid-DTHFPICIFK(Palm)-NH2)2], the “Potency EC50 (nM), ferroportin internalization/degradation assay” value was 580 nM.
In the case of Isovaleryl-DTHFPCIK(Palmitoyl)F-NH2 (also: homodimer, linkage of subunits not given here) [(isovaleric acid-DTHFPCIK(Palm)-F-NH2)2], the “Potency EC50 (nM), ferroportin internalization/degradation assay” value is reported as 294 nM.
With Isovaleryl-DTHFPCIKFAA-NH2 (also: homodimer, linkage of subunits not given here) [(isovaleric acid-DTHFPCIKFAA-NH2)2] the “Potency EC50 (nM), ferroportin internalization/degradation assay” value was 47 nM.

Biological target: T1, human ferroportin (SLC40A1) fused in …
Assay: cell-based or functional assay
Remark: another data set of the same source
B4 was tested, and the “EC50 (nM) (n > 3), ferroportin internalization/degradation assay” value was 24 nM.
With B5 the “EC50 (nM) (n > 3), ferroportin internalization/degradation assay” value was 14 nM.
In the case of Isovaleryl-DTHFPCIRFK-{K(γGlu-Palm)-NH2} (also: dimer: two subunits joined at C-termini through a Lys linker) [(Isovaleric acid-DTHFPCIRF)2[Lys]-K(iso-Glu-Palm)-NH2], the “EC50 (nM) (n > 3), ferroportin internalization/degradation assay” value is reported as 4 nM.
In the case of B6, the “EC50 (nM) (n > 3), ferroportin internalization/degradation assay” value is reported as 30 nM.

Biological target: T1, human ferroportin (SLC40A1) fused in …
Assay: cell-based or functional assay
Remark: another data set of the same source
In the case of B4, the “EC50 (nM) (n > 3), ferroportin internalization/degradation assay” value is reported as 24 nM.
For B5, the “EC50 (nM) (n > 3), ferroportin internalization/degradation assay” value was 14 nM.
In the case of Isovaleryl-DTHFPCIRFK-{K(γGlu-Palm)-NH2} (also: dimer: two subunits joined at C-termini through a Lys linker) [(Isovaleric acid-DTHFPCIRF)2[Lys]-K(iso-Glu-Palm)-NH2], the “EC50 (nM) (n > 3), ferroportin internalization/degradation assay” value is reported as 4 nM.
B6 was tested, and the “EC50 (nM) (n > 3), ferroportin internalization/degradation assay” value was 30 nM.
In the case of B7, the “EC50 (nM) (n > 3), ferroportin internalization/degradation assay” value is reported as 16 nM.

Biological target: T1, human ferroportin (SLC40A1) fused in …
Assay: cell-based or functional assay
Remark: another data set of the same source
With H-DTHFPICIF-NH2 [Mini-Hepcidin 1-9, Hy-DTHFPICIF-NH2] the “Potency EC50 (nM), ferroportin degradation” value was 712 nM.
With FICIPFHTD (all nine residues are D-amino acids (retro inverse); C-terminal amide) [RI-Mini Hepcidin, Hy-DPhe-DIle-DCys-DIle-DPro-DPhe-DHis-DThr-DAsp-NH2] the “Potency EC50 (nM), ferroportin degradation” value was over 10000 nM.
